Stoichiometry N data for one substance are collected here from paper PMC9135737.

What is called stoichiometry N is a count of units in the complex or per binding partner.

The target of the experiment is Roseovarius indicus B108 MmtN (the sample called MmtN in the DLS analysis) (Roseovarius indicus B108). The experiment in a line: dynamic light scattering; DynaPro NanoStar, 4 °C, 2 μl of 2.5 mg ml^-1 protein in 10 mM Tris-HCl, 100 mM NaCl, pH 8.0.

Consider “Roseovarius indicus B108 MmtN (the sample called MmtN in the DLS analysis) (enzyme)”, for which the stoichiometry N came out at 3.
